Data as given in US20240076398A1.

Tests used:
[1] = biological target: human C5aR1 (complement component 5a receptor 1) (human) (UniProt P21730); assay: flow cytometry, Expi293 with transient human C5aR1, 100 nM antibody; mock 3,722
[2] = biological target: human C5aR1 (complement component 5a receptor 1) (human) (UniProt P21730); assay: flow cytometry, Expi293 with transient human C5aR1, secondary antibody alone; mock 3,052

Chain of human C5aR1 (complement component 5a receptor 1) (human) (P21730 other isoform, or with tags, fused parts or gaps): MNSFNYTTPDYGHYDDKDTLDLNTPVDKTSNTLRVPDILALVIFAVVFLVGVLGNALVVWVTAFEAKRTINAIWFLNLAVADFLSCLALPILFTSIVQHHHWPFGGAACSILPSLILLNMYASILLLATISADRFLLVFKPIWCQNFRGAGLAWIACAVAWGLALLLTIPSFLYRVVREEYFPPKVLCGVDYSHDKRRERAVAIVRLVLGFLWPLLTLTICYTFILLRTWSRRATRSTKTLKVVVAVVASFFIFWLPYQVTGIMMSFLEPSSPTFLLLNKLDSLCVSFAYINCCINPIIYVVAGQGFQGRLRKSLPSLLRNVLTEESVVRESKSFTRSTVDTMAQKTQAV

Row | Substance | geometric mean fluorescent intensity [1] | geometric mean fluorescent intensity [2]
1 | Isotype control (Table 6) (antibody) | 6550 | 
2 | Anti-human-APC secondary antibody alone |  | 5350
